Substrate in data set [1]: O=C(O)CC(=O)C(=O)O
The data set is described as follows: purified protein. The format is biochemical, Escherichia coli. As to conditions: 67 μM acetyl-CoA (fixed), 0.2 mM DTNB, 100 mM Tris-HCl pH 8, 37°C.

Substrate in data set [2]: COc1cc(C=O)ccc1O
The data set is described as follows: purified protein. The format is biochemical, Escherichia coli. As to conditions: 0.1 mM NADPH, 100 mM phosphate pH 7.4, 37°C.

B1: GltA (citrate synthase) (Escherichia coli K-12) (protein)
chain: MADTKAKLTLNGDTAVELDVLKGTLGQDVIDIRTLGSKGVFTFDPGFTSTASCESKITFIDGDEGILLHRGFPIDQLATDSNYLEVCYILLNGEKPTQEQYDEFKTTVTRHTMIHEQITRLFHAFRRDSHPMAVMCGITGALAAFYHDSLDVNNPRHREIAAFRLLSKMPTMAAMCYKYSIGQPFVYPRNDLSYAGNFLNMMFSTPCEPYEVNPILERAMDRILILHADHEQNASTSTVRTAGSSGANPFACIAAGIASLWGPAHGGANEAALKMLEEISSVKHIPEFVRRAKDKNDSFRLMGFGHRVYKNYDPRATVMRETCHEVLKELGTKDDLLEVAMELENIALNDPYFIEKKLYPNVDFYSGIILKAMGIPSSMFTVIFAMARTVGWIAHWSEMHSDGMKIARPRQLYTGYEKRDFKSDIKR
notes: hexamer
For B1, in the data set “purified protein [1]”, the Km was found to be 154 ± 25 µM, the Vmax came out at 4.8 µmol/min/mg, the kcat was 3.87 ± 0.233 s⁻¹ and the catalytic efficiency (kcat/Km) was 25100 ± 1470 M⁻¹ s⁻¹.

B2: DkgA (Escherichia coli K-12) (protein)
chain: ANPTVIKLQDGNVMPQLGLGVWQASNEEVITAIQKALEVGYRSIDTAAAYKNEEGVGKALKNASVNREELFITTKLWNDDHKRPREALLDSLKKLQLDYIDLYLMHWPVPAIDHYVEAWKGMIELQKEGLIKSIGVCNFQIHHLQRLIDETGVTPVINQIELHPLMQQRQLHAWNATHKIQTESWSPLAQGGKGVFDQKVIRDLADKYGKTPAQIVIRWHLDSGLVVIPKSVTPSRIAENFDVWDFRLDKDELGEIAKLDQGKRLGPDPDQFGG
As for B2, in “purified protein [2]”, the Km was 200 ± 80 µM and the turnover number (kcat) was 0.0467 s⁻¹.

B3: YqhD (Escherichia coli K-12) (protein)
chain: MNNFNLHTPTRILFGKGAIAGLREQIPHDARVLITYGGGSVKKTGVLDQVLDALKGMDVLEFGGIEPNPAYETLMNAVKLVREQKVTFLLAVGGGSVLDGTKFIAAAANYPENIDPWHILQTGGKEIKSAIPMGCVLTLPATGSESNAGAVISRKTTGDKQAFHSAHVQPVFAVLDPVYTYTLPPRQVANGVVDAFVHTVEQYVTKPVDAKIQDRFAEGILLTLIEDGPKALKEPENYDVRANVMWAATQALNGLIGAGVPQDWATHMLGHELTAMHGLDHAQTLAIVLPALWNEKRDTKRAKLLQYAERVWNITEGSDDERIDAAIAATRNFFEQLGVPTHLSDYGLDGSSIPALLKKLEEHGMTQLGENHDITLDVSRRIYEAAR
For B3, in “purified protein [2]”, the Michaelis-Menten constant (Km) is 270 ± 40 µM and the catalytic constant (kcat) came out at 0.103 s⁻¹.

The term Km denotes the concentration of substrate that gives half-maximal velocity. For orientation: Vmax means the rate approached at saturating substrate. The term kcat denotes the maximal rate divided by the concentration of active sites. Broadly, the kcat/Km is the second-order rate constant that governs catalysis at low substrate concentration.

For the origin of these results see article PMC6561319, “Proteomic Profiling, Transcription Factor Modeling, and Genomics of Evolved Tolerant Strains Elucidate Mechanisms of Vanillin Toxicity in Escherichia coli” (mSystems, 2019).
